The DeepSol protein solubility set

assay: soluble on expression in E. coli; label from the status in PepcDB or PDB records

Sequence	soluble on expression in E. coli
SPNATPRRPLQELRRAELVEIIVETEAQTGVSGINVAGGGKEGIFVRELREDSPAARSLSLQEGDQLLSARVFFENFKYEDALRLLQCAEPYKVSFCLKRTVPTGDLALRPGTVSGYEIKGPRAKVAKLNIQSLSPVKKKKMVPGALGVPADLAPVDVEFSFPKFSRLRRGLKAEAVKGPVPAAPARRRLQLPRLRVREVAEEAQAARLAAAAPPPRKAKVEAEVAAGARFTAPQVELVGPRLPGAEVGVPQVSAPKAAPSAEAAGGFALHLPTLGLGAPAPPAVEAPAVGIQVPQVELPALPSLPTLPTLPCLETREGAVSVVVPTLDVAAPTVGVDLALPGAEVEARGEAPEVALKMPRLSFPRFGARAKEVAEAKVAKVSPEARVKGPRLRMPTFGLSLLEPRPAAPEVVESKLKLPTIKMPSLGIGVSGPEVKVPKGPEVKLPKAPEVKLPKVPEAALPEVRLPEVELPKVSEMKLPKVPEMAVPEVRLPEVELPKVSEMKLPKVPEMAVPEVRLPEVQLLKVSEMKLPKVPEMAVPEVRLPEVQLPKVSEMKLPEVSEVAVPEVRLPEVQLPKVPEMKVPEMKLPKVPEMKLPEMKLPEVQLPKVPEMAVPDVHLPEVQLPKVPEMKLPEMKLPEVKLPKVPEMAVPDVHLPEVQLPKVPEMKLPKMPEMAVPEVRLPEVQLPKVSEMKLPKVPEMAVPDVHLPEVQLPKVCEMKVPDMKLPEIKLPKVPEMAVPDVHLPEVQLPKVSEIRLPEMQVPKVPDVHLPKAPEVKLPRAPEVQLKATKAEQAEGMEFGFKMPKMTMPKLGRAESPSRGKPGEAGAEVSGKLVTLPCLQPEVDGEAHVGVPSLTLPSVELDLPGALGLQGQVPAAKMGKGERAEGPEVAAGVREVGFRVPSVEIVTPQLPAVEIEEGRLEMIETKVKPSSKFSLPKFGLSGPKVAKAEAEGAGRATKLKVSKFAISLPKARVGAEAEAKGAGEAGLLPALDLSIPQLSLDAHLPSGKVEVAGADLKFKGPRFALPKFGVRGRDTEAAELVPGVAELEGKGWGWDGRVKMPKLKVSTAGQVVTEGHDAGLRMPPLGISLPQVELTGFGEAGTPGQQAQSTVPSAEGTAGYRVQVPQVTLSLPGAQVAGGELLVGEGVFKMPTVTVPQLELDVGLSREAQAGEAATGEGGLRLKLPTLGARARVGGEGAEEQPPGAERTFCLSLPDVELSPSGGNHAEYQVAEGEGEAGHKLKVRLPRFGLVRAKEGAEEGEKAKSPKLRLPRVGFSQSEMVTGEGSPSPEEEEEEEEEGSGEGASGRRGRVRVRLPRVGLAAPSKASRGQEGDAAPKSPVREKSPKFRFPRVSLSPKARSGSGDQEEGGLRVRLPSVGFSETGAPGPARMEGAQAAAV	soluble
SPPENRGEHETGRTLHIATYNIHKGLSFFNQRLILHELRDQLHGLDVDVVFLQEVVGEHALHATRFRDWPRNTQYEFLADSMWPDFAYGKNAVYGHGHHGNAILSRFSIVNWENEDISAHRFESRGLLHCELAIPGWKDTLHCICVHLGLFRRGRSQQLEAIEKRIRQLVSPDAPLVVAGDFNDWRGAANPLLASRLNLVEVFQHTHGKAARSFPSVLPLLRLDRIYIRGFQVKNAQILHNRPWSRISDHAVLSANIMRT	not soluble
SQHFGRPRTTHEFLFGALAELVDNARDADATRIDIYAERREDLRGGFMLCFLDDGAGMDPSDAASVIQFGKSAKRTPESTQIGQYGNGLKSGSMRIGKDFILFTKKEDTMTCLFLSRTFHEEEGIDEVIVPLPTWNARTREPVTDNVEKFAIETELIYKYSPFRTEEEVMTQFMKIPGDSGTLVIIFNLKLMDNGEPELDIISNPRDIQMAETSPEGTKPERRSFRAYAAVLYIDPRMRIFIHGHKVQTKRLSCCLYKPRMYKYTSSRFKTRAEQEVKKAEHVARIAEEKAREAESKARTLEVRLGGDLTRDSRVMLRQVQNRAITLRREADVKKRIKEAKQRALKEPKELNFVFGVNIEHRDLDGMFIYNCSRLIKMYEKVGPQLEGGMACGGVVGVVDVPYLVLEPTHNKQDFADAKEYRHLLRAMGEHLAQYWKDIAIAQRGIIKFWDEFGYLSANWNQPPSSELRYKRRRAMEIPTTIQCDLCLKWRTLPFQLSSVEKDYPDTWVCSMNPDPEQDRCEASEQKQKVPLGTFRKDMKTQEEKQKQLTEKIRQQQEKLEALQKTTPIRSQADLKKLPLEVTTRPSTEEPVRRPQRPRSPPLPAVIRNAPSRPPSLPTPRPASQPRKAPVISSTPKLPALAAREEASTSRLLQPPEAPRKPANTLVKTASRPAPLVQQLSPSLLPNSKSPREVPSPKVIKTPVVKKTESPIKLSPATPSRKRSVAVSDEEEVEEEAERRKERCKRGRFVVKEEKKDSNELSDSAGEEDSADLKRAQKDKGLHVEVRVNREWYTGRVTAVEVGKHVVRWKVKFDYVPTDTTPRDRWVEKGSEDVRLMKPPSPEHQSLDTQQEGGEEEVGPVAQQAIAVAEPSTSECLRIEPDTTALSTNHETIDLLVQILRNCLRYFLPPSFPISKKQLSAMNSDELISFPLKEYFKQYEVGLQNLCNSYQSRADSRAKASEESLRTSERKLRETEEKLQKLRTNIVALLQKVQEDIDINTDDELDAYIEDLITKGD	soluble
SQLNPTVMISGSSANNHRFDNLVAILNRQSTTHSLLRVQVNEDNSISYSGRIRPNDSQPYIVIGFQNNSDGYANIKRQAKWLEIAMKFLQKRYHFNHFNAFGHSNGGLDWTIYLEKYFNQKSSTIGTLMTVGSPFNFSEKSESNRTQMLTDLIKNRSKLPRDMTVYSIAGTETYNDDGIVPIESVLSGKYVFQKNVHSYTQITVSGNDSEHSDLPTNPQIVQLIQRDILDGRGQKQSSNPVFNNH	not soluble
SQQALRILEVRSAYCKNDFEWDNMKRLAFKNVDDSNTRLMREYVLETSHVETDSDK	soluble
SRAYDLVVIGAGSGGLEAGWNAASLHKKRVAVIDLQKHHGPPHYAALGGTCVNVGCVPKKLMVTGANYMDTIRESAGFGWELDRESVRPNWKALIAAKNKAVSGINDSYEGMFADTEGLTFHQGFGALQDNHTVLVRESADPNSAVLETLDTEYILLATGSWPQHLGIEGDDLCITSNEAFYLDEAPKRALCVGGGYISIEFAGIFNAYKARGGQVDLAYRGDMILRGFDSELRKQLTEQLRANGINVRTHENPAKVTKNADGTRHVVFESGAEADYDVVMLAIGRVPRSQTLQLEKAGVEVAKNGAIKVDAYSKTNVDNIYAIGDVTDRVMLTPVAINEGAAFVDTVFANKPRATDHTKVACAVFSIPPMGVCGYVEEDAAKKYDQVAVYESSFTPLMHNISGSTYKKFMVRIVTNHADGEVLGVHMLGDSSPEIIQSVAICLKMGAKISDFYNTIGVHPTSAEELCSMRTPAYFYEKGKRVEKIDSNL	soluble
SRGMTPGSRLIDYQLIDSTEELAAILGCGHPSSIHKITRVRLANDIPMAIESSHIPFELAGELNESHFQSSIYDHIERYNSIPISRAKQELEPSAATTEEANILGIQKGAPVLLIKRTTYLQNGTAFEHAKSVYRGDRYTFVHYMDRLS	not soluble
SRIKMKKARKILAEKRAAAPVVSVPCIPPHRLSKITNRLTIQRKSQFMQRLHSYWTLKRQSRNGVPLLRRLQTHLQSQRNCDQVGRDSEDKNWALKEQLKSWQRLRHDLERARLLVELIRKREKLKRETIKVQQIAMEMQLT	not soluble
SRLYRHNLMEDVFNMENESFMQETRLMENEYSVNLPTRFYYKKRWNNGFVNIVNIFRACMVIGTPGSGKSYAIVNSYIRQLIAKGFAIYIYDYKFDDLSTIAYNSLLKNMDKYEVKPRFYVINFDDPRRSHRCNPINPEFMTDISDAYEASYTIMLNLNRTWIEKQGDFFVESPIILLAAIIWYLKIYKNGIYCTFPHAVELLNKPYSDLFTILTSYPELENYLSPFMDAWKGNAQDQLQGQIASAKIPLTRMISPQLYWVMTGNDFSLDINNPKEPKLLCVGNNPDRQNIYSAALGLYNSRIVKLINKKKQLKCAVIIDELPTIYFRGLDNLIATARSNKVGVLLGFQDFSQLTRDYGEKESKVIQNTVGNIFSGQVVGETAKTLSERFGKVLQQRQSVSINRQDVSTSINTQLDSLIPASKIANLSQGTFVGAVADNFDERIEQKIFHAEIVVDHTKISAEEKAYQKIPVINDFKDRNGNDIMMQQIQRNYDQIKADAQAIINEEMRRIKNDPELRKRLGLEDEKGKDPDKS	not soluble
SSAESVSCTVKSPVALQIGDAVSDSSRPGVYITDITLAEPVNIQEISFKNFYTAYLTVRLQRRHGSTASKWVTCLKNYCLMGNPHAEAGSHDYFSIYRQQMSTEPDNVTTVRLILRQPSSEWLSFSIEEINIYPCTKEDSERDVPAWLSTLTPVDEPLDLKGLPDPETVSSSIQQMWALTEIMQASQTAASIGRFDVEGAYDVKLLSYT	not soluble
SSAEVKVTGQNQEQFLLLAKSAKGAALATLIHQVLEAPGVYVFGELLDMPNVRELAESDFASTFRLLTVFAYGTYADYLAEARNLPPLTEAQKNKLRHLSVVTLAAKVKCIPYAVLLEALALRNVRQLEDLVIEAVYADVLRGSLDQRNQRLEVDYSIGRDIQRQDLSAIARTLQEWCVGCEVVLSGIEEQVSRANQHKEQQLGLKQQIESEVANLKKTIKVTTAAAAAATSQDPEQHLTELREPAPGTNQRQPSKKASKGKGLRGSAKIWSKSN	soluble
SSAQFDHVTVIKKSNVYFGGLCISHTVQFEDGTKKTLGVILPTEQPLTFETHVPERMEIISGECRVKIADSTESELFRAGQSFYVPGNSLFKIETDEVLDYVCHLE	not soluble
SSESKQDEDSGTSASLSKASKETSCKRQNREGSWDSSLVMKKPKQNQVSTVTDSEVALVSAYLEQRRVRRHSQFLRVNQIQQDSDTTECDSEESNSGASSWKESESDHHLSPANIKRRKSVSRQRDMENYEVRQRPCLHCKAMRTREWLTRHFPPSASVTTPMKGEIQEENLTPGTNTKFSKF	soluble
SSGSKSSNSSAKKSAGKPQQGGDLVVGSIGEPTLFNSLYSTDDASTDIENMLYSFLTKTDEKLNVKLSLAESIKELDGGLAYDVKIKKGVKFHDGKELTADDVVFTYSVPLSKDYKGERGSTYEMLKSVEKKGDYEVLFKLKYKDGNFYNNALDSTAILPKHILGNVPIADLEENEFNRKKPIGSGPFKFKEWKQGQYIKLEANDDYFEGRPYLDTVTYKVIPDANAAEAQLQAGDINFFNVPATDYKTAEKFNNLKIVTDLALSYVYIGWNEKNELFKDKKVRQALTTALDRESIVSQVLDGDGEVAYIPESPLSWNYPKDIDVPKFEYNEKKAKQMLAEAGWKDTNGDGILDKDGKKFSFTLKTNQGNKVREDIAVVVQEQLKKIGIEVKTQIVEWSALVEQMNPPNWDFDAMVMGWSLSTFPDQYDIFHSSQIKKGLNYVWYKNAEADKLMKDAKSISDRKQYSKEYEQIYQKIAEDQPYTFLYYPNNHMAMPENLEGYKYHPKRDLYNIEKWWLAK	soluble
SSLRLPSAAELSGQWVLSGAEQHCDIRLNTDVLDGTTWKLAGDTACLQKLLPEAPVGWRPTPDGLTLTQADGSAVAFFSRNRDRYEHKLVDGSVRTLKKKA	soluble
SSSEQKSQHCKPEEGVEAQEEALGLVGAQAPTTEEQEAAVSSSSPLVPGTLEEVPAAESAGPPQSPQGASALPTTISFTCWRQPNEGSSSQEEEGPSTSPDAESLFREALSNKVDELAHFLLRKYRAKELVTKAEMLERVIKNYKRCFPVIFGKASESLKMIFGIDVKEVDPTSNTYTLVTCLGLSYDGLLGNNQIFPKTGLLIIVLGTIAMEGDSASEEEIWEELGVMGVYDGREHTVYGEPRKLLTQDWVQENYLEYRQVPGSNPARYEFLWGPRALAETSYVKVLEHVVRVNARVRIAYPSLREAALLEEEEGV	soluble
SSSGYSSLEEDEDFFFTARTSFFRRAPPGKSRSGQPDVEKEKETHNYLSKEEIKEKVHKYNSAVTDKLKMTLNSNGIYTGFIKVQMELCKPAQPSPEPSSGGCMNTLHISSTNTVGEVIEALLRKFLVTESPTKFALYKRCHREDQVYACKLSDREHPLYLRLVAGPRTDTLSFVLREHEIGEWEAFSLPELQNFLRILDKEEDEQLQSLKRRYTAYRQKLEEALGEVWKPG	soluble
